# Results published in US20080014191A1.
# Target: wild-type cystic fibrosis transmembrane conductance regulator (CFTR) (Homo sapiens (Human)) (UniProt P13569)
# Assay: CFTR co-IP, MudPIT MS; BHK wt
# wild-type cystic fibrosis transmembrane conductance regulator (CFTR) (Homo sapiens (Human)), sequence (P13569 whole entry): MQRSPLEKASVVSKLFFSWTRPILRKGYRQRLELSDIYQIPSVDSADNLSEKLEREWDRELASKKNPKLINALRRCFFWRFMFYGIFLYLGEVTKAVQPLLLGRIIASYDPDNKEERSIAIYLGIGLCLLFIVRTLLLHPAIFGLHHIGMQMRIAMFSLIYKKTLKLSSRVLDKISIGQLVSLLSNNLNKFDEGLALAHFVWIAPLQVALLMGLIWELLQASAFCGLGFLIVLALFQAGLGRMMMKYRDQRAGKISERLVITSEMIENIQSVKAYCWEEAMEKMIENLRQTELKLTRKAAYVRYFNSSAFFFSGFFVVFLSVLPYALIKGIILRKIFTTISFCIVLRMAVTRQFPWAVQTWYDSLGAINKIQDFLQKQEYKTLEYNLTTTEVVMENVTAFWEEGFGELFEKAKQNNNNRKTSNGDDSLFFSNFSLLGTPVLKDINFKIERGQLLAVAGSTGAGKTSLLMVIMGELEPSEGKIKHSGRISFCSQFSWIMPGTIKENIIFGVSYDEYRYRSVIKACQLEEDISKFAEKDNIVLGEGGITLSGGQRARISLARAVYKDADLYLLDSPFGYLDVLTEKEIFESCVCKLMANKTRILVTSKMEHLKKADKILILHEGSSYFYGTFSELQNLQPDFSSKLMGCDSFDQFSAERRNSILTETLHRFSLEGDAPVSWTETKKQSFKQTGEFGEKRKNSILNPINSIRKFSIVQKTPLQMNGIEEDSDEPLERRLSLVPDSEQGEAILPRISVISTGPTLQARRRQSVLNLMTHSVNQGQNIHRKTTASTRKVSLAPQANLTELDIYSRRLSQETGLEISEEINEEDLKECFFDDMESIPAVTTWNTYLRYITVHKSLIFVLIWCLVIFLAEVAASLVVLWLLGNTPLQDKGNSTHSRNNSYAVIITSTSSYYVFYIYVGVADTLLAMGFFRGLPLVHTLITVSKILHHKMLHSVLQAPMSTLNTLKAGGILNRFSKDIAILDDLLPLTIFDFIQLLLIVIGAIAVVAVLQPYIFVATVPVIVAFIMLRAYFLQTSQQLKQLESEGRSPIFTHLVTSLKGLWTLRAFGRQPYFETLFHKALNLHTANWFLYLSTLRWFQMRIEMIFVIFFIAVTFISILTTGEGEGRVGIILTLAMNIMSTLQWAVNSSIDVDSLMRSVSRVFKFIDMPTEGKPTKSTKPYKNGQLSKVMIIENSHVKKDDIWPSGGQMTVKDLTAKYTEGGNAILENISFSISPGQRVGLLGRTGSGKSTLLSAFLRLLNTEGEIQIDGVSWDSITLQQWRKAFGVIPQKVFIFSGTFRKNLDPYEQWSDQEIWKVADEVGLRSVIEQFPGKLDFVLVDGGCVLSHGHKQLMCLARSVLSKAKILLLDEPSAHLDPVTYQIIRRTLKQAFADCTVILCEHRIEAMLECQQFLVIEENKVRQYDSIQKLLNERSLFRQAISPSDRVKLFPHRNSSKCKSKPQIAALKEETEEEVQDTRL
binder,measurement,value
"Calnexin (protein, UniProt P27824 21-592, looked up) HDGHDDDVIDIEDDLDDVIEEVEDSKPDTTAPPSSPKVTYKAPVPTGEVYFADSFDRGTLSGWILSKAKKDDTDDEIAKYDGKWEVEEMKESKLPGDKGLVLMSRAKHHAISAKLNKPFLFDTKPLIVQYEVNFQNGIECGGAYVKLLSKTPELNLDQFHDKTPYTIMFGPDKCGEDYKLHFIFRHKNPKTGIYEEKHAKRPDADLKTYFTDKKTHLYTLILNPDNSFEILVDQSVVNSGNLLNDMTPPVNPSREIEDPEDRKPEDWDERPKIPDPEAVKPDDWDEDAPAKIPDEEATKPEGWLDDEPEYVPDPDAEKPEDWDEDMDGEWEAPQIANPRCESAPGCGVWQRPVIDNPNYKGKWKPPMIDNPSYQGIWKPRKIPNPDFFEDLEPFRMTPFSAIGLELWSMTSDIFFDNFIICADRRIVDDWANDGWGLKKAADGAAEPGVVGQMIEAAEERPWLWVVYILTVALPVFLVILFCCSGKKQTSGMEYKKTDAPQPDVKEEEEEKEEEKDKGDEEEEGEEKLEEKQKSDAEEDGGTVSQEEEDRKPKAEEDEILNRSPRNRKPRRE",% sequence coverage,10%
same,total spectra,7 spectra
same,unique spectra,4 spectra
